This note sets out measurements from patent US20240350583A1, “COMPOSITION FOR PREVENTING OR TREATING FIBROTIC DISEASES, COMPRISING HAPLN1” (Chung Ang University Industry Academic Cooperation …, priority 2021, published 2024).

The test system of assay [1] is normal human dermal fibroblast (NHDF). The experiment in a line: TGFβ1-induced fibrosis of human dermal fibroblasts, αSMA western blot. The class given is cell-based. Here is the method: (1) Human dermal fibroblasts (normal human dermal fibroblast, NHDF) were seeded (1.0×10^5 cells/well) in a 6-well plate and incubated in FBM-2 (fibroblast growth medium-2, CC-3131, Lonza) medium for 24 hours in an incubator at 37° C. 5% CO2.
(2) After replacing with serum-free medium, the medium was incubated for 24 hours.
(3) In this regard, under conditions in which fibrosis was induced by treatment with TGFβ1 (10 ng/ml), each well of the plate was treated with the composition of the present disclosure based on Preparation Example 2 but with rhHAPLN1 protein content of 0, 3, 10, 30, and 100 ng/ml and 100 μg/mL and 200 μg/mL of pirfenidone (Selleckchem), a commercially available anti-fibrotic agent, respectively, and incubated for 24 hours.
(4) Afterwards, each sample was washed twice with phosphate buffered saline (PBS, pH 7.2), and then the expression level of αSMA, a marker for myofibroblasts, was confirmed by western blot.

The test system of assay [2] is human colon fibroblast cell line (CCD-18Co). As to the kind of experiment: TGFβ1-induced fibrosis of human colon fibroblast cell line, αSMA western blot. Format: cell-based. As for the experimental part: (1) A human colon fibroblast cell line (CCD-18Co (human colon fibroblast cell line; ATCC, CRL-1459)) was seeded (1.5×10^5 cells/well) in a 6-well plate according to the experimental scheme in FIG. 3A and incubated in Eagle's minimum essential medium (EMEM) medium including 10% fetal bovine serum (FBS) for 24 hours in an incubator at 37° C. and 5% CO2.
(2) After replacing with serum-free EMEM medium, the medium was incubated for 24 hours.
(3) The plates were then treated with TGF-β (10 ng/ml) to induce fibrosis and incubated for 24 hours.
(4) Afterwards, each well of the plate was then treated with the composition of the present disclosure at rhHAPLN1 protein content of 0, 3, 10, 30, and 100 ng/ml and pirfenidone 100 μg/mL and 200 μg/mL, respectively, and incubated for 24 hours.
(5) Each sample was then treated with cell lysis buffer and harvested.
(6) Western blot was performed on the samples. Here, anti-αSMA Ab (Abcam, ab7817), anti-GAPDH Ab (Santa Cruz, sc-32233) were used as primary antibodies and HRP-conjugated anti-mouse IgG Ab (CST, #7076) as secondary antibodies to confirm the protein expression levels of αSMA and GAPDH.
Background: A western blot detects proteins with antibodies after separation by electrophoresis.

In assay [3] the test system is ischemia/reperfusion-induced kidney fibrosis. The experiment in a line: Ischemia/reperfusion kidney fibrosis mouse model. The class given is in vivo. Here is the method:
According to the experimental scheme of FIG. 14A, 8-week-old C57BL/6 male mice were subjected to pentobarbital (50 mg/kg BW, i.p.) anesthesia, a flank incision was made to induce ischemia, the kidneys were exposed, and blood flow was blocked for 25 minutes by clamping the bilateral renal pedicles using a non-traumatic microaneurysm clamp (Roboz Surgical Instruments). The clamps were then removed and the incisions were sutured. The sham-operation was performed in the same manner as the ischemia/reperfusion experiment, except for the blockage of blood flow.
One day after ischemia, blood urea nitrogen (BUN) was measured, and only mice whose value rose above about 98 mg/dL (specified as 100 mg/dl from now on) were grouped into experimental groups and the experiment was conducted. The experimental groups were administered various drugs, including the composition of the present disclosure, daily from day 7 after surgery, and the kidneys were harvested on day 14 for histologic and biochemical analysis.
In addition, blood was taken on day 7 after drug administration to measure BUN concentration, and 14 days later, blood and urine were taken to measure creatinine concentration in blood and urine and BUN concentration in blood. Additionally, creatinine clearance was calculated.
Biochemical analysis (evaluation of fibrosis index expression): To confirm the expression of αSMA in kidney tissue, western blot was performed using antibodies against αSMA.
To confirm the expression of αSMA in sham-operation (Sham) and ischemia/reperfusion (IR) mouse kidney tissue, samples from each experimental group were loaded onto a single gel, western blot was performed, and the density of each band was measured. Ponceau and GADPH were utilized as equal loading markers (FIG. 14B). Where SV; sham-vehicle, SB; sham-rhHAPLN1-dissolving solution, IRV; IR-vehicle, IRP; IR-pirfenidone, IRA; IR-composition of the present disclosure (rhHAPLN1) A, IRB; IR-composition of the present disclosure (rhHAPLN1) B, IRC; IR-composition of the present disclosure (rhHAPLN1) C, respectively, and more details are shown in Table 1 and Table 2 above. More specifically, the Sham-vehicle is a group in which only the rhHAPLNB1-free buffer solution was diluted in PBS and IP-injected into the Sham control group. Sham-rhHAPLN1-dissolving solution is a group in which rhHAPLN1 concentration B (0.02 mg/kg) was diluted and IP injected to confirm the effect of rhHAPLN1 under normal conditions. […] IR-pirfenidone is a group in which 300 mg/kg of pirfenidone was administered orally after induction of I/R fibrosis.
In addition, the fold change in expression level for IRV in relation to αSMA expression was graphed (FIG. 14C).
As part of the histological analysis of fibrosis, paraffin-fixed kidneys were cut into 3 μm sections, and Sirus red and PAS staining were performed on these slide sections to assess collagen expression and fibrotic lesions in the tissue, respectively (FIG. 14D). Where SV; sham-vehicle, SB; sham-rhHAPLN1-dissolving solution, IRV; IR-vehicle, IRP; IR-pirfenidone, IRA; IR-composition of the present disclosure (rhHAPLN1) concentration 0.1 mg/kg, IRB; IR- the composition of the present disclosure (rhHAPLN1) at a concentration of 0.02 mg/kg, IRC; IR-the composition of the present disclosure (rhHAPLN1) at a concentration of 0.004 mg/kg, respectively.
In addition, in order to quantify the expression of collagen in the above-mentioned tissue, two of the outer medulla areas of the kidney were randomly imaged in the tissue staining photograph of FIG. 14D, and collagen-positive area was marked. Here, the red color is a sirus red positive signal (FIG. 14E).
As an experiment to analyze kidney function, blood was taken through a glass capillary tube with heparin added through the retroorbital vein plexus, and urine was obtained using a metabolic cage. Blood urea nitrogen and creatinine (plasma creatinine, PCr) concentrations were measured using Vitros250 (Johnson & Johnson). […]

Where [4] appears, read: IRP: pirfenidone 300 mg/kg B.W oral.
Where [5] appears, read: IRA: rhHAPLN1 0.1 mg/kg B.W intraperitoneal.
Setting [6] is: IRB: rhHAPLN1 0.02 mg/kg B.W intraperitoneal.

Turning to `Cc1ccc(=O)n(-c2ccccc2)c1` [pirfenidone, reference compound], the “expression level of αSMA at 200 μg/mL versus 100 μg/mL” value in assay [1] (pirfenidone 200 μg/mL, TGFβ1 10 ng/ml) was “higher expression level of αSMA than 100 μg/mL”. Also, the “optimal anti-fibrotic concentration (assumed)” value in assay [1] (αSMA, TGFβ1 10 ng/ml) was found to be 100 µg/mL. In addition, the inhibition (commonly the relative decrease from the control value, in per cent) at 100 µg/mL in assay [2] (Homo sapiens, CCD-18Co, pirfenidone 100 μg/mL) was determined as 10.6%. The “relative level of αSMA (value used in the inhibition formula; TGFβ1 alone 3.82, untreated 1)” value in assay [2] (pirfenidone 100 μg/mL) stood at 3.52. Besides, in assay [2] (pirfenidone 200 μg/mL), the “expression level of αSMA at 200 μg/mL versus 100 μg/mL” value was “higher expression level of αSMA than 100 μg/mL”. Moreover, in assay [3] (setting [4]), the “collagen positive area compared to IRV, quantified with i-Solution (FIG. 14F)” value (from here on “collagen positive area compared to IRV”) is “weaker” and the “expression of collagen compared to IRV, blinded test of stained photographs (FIG. 14D)” value (“expression of collagen compared to IRV” for short) is given as “weaker”.

B1: rhHAPLN1: recombinant human HAPLN1 protein of SEQ ID NO: 1 produced in CHO-K1 cells, stabilized in acetic acid buffer, sucrose, PS80, pH 5.0 (protein, listed as Homo sapiens)
chain: MKSLLLLVLISICWADHLSDNYTLDHDRAIHIQAENGPHLLVEAEQAKVFSHRGGNVTLPCKFYRDPTAFGSGIHKIRIKWTKLTSDYLKEVDVFVSMGYHKKTYGGYQGRVFLKGGSDSDASLVITDLTLEDYGRYKCEVIEGLEDDTVVVALDLQGVVFPYFPRLGRYNLNFHEAQQACLDQDAVIASFDQLYDAWRGGLDWCNAGWLSDGSVQYPITKPREPCGGQNTVPGVRNYGFWDKDKSRYDVFCFTSNFNGRFYYLIHPTKLTYDEAVQACLNDGAQIAKVGQIFAAWKILGYDRCDAGWLADGSVRYPISRPRRRCSPTEAAVRFVGFPDKKHKLYGVYCFRAYN
For the molecule B1, in assay [1] (TGFβ1 10 ng/ml, all rhHAPLN1 contents 3, 10, 30, 100 ng/ml, 24 hours), the “expression level of αSMA compared to composition that does not include rhHAPLN1 protein (FIG. 1B)” value is recorded as “significantly lower”. Besides, the “anti-fibrotic action from αSMA western blot band, compared to pirfenidone (FIG. 1A)” value in assay [1] (TGFβ1 10 ng/ml, pirfenidone 100 and 200 μg/mL) is listed as “much better anti-fibrotic action than pirfenidone”. Besides, the “rhHAPLN1 protein content showing the most excellent anti-fibrotic efficacy” value in assay [1] (TGFβ1 10 ng/ml, αSMA) turned out to be 100 ng/mL. The “anti-fibrotic efficacy higher than pirfenidone at 100 μg/mL” value in assay [1] (rhHAPLN1 100 ng/ml, αSMA) is given as 25%. The “expression level of αSMA compared to composition that does not include rhHAPLN1 protein (FIG. 3C)” value in assay [2] (TGFβ1 10 ng/ml 24 h, then rhHAPLN1 3, 10, 30, 100 ng/ml 24 h) is “significantly lower”. Besides, the “anti-fibrotic action from αSMA western blot band, compared to pirfenidone (FIG. 3B)” value in assay [2] (all rhHAPLN1 contents, pirfenidone 100 and 200 μg/mL) was “much better anti-fibrotic action compared to pirfenidone”. For the same molecule, in assay [2] (rhHAPLN1 10 ng/ml), the “anti-fibrotic efficacy of rhHAPLN1 relative to pirfenidone at 100 μg/mL” value is listed as “approximately 7 folds”; the “anti-fibrotic efficacy relative to pirfenidone at 200 μg/mL” value is “much higher than twice”; the “inhibition of TGFβ1-induced αSMA” value was 71.6%; the “relative level of αSMA (value used in the inhibition formula; TGFβ1 alone 3.82, untreated 1)” value was 1.8. The “rhHAPLN1 protein content showing the most excellent anti-fibrotic efficacy” value in assay [2] (αSMA) amounted to 10 ng/mL. In addition, in assay [3] (setting [5]), the “collagen positive area compared to IRV” value was “weaker”; the “expression of collagen compared to IRV” value was “weaker”; the “expression of αSMA in kidney compared to IRV (FIG. 14C)” value was “lowered to pirfenidone-like levels”. In assay [3] (setting [6]), the “collagen positive area compared to IRV” value was “weaker”; the “expression of collagen compared to IRV” value is “weaker”; the “expression of αSMA in kidney compared to IRV (FIG. 14C)” value is given as “lowered to pirfenidone-like levels”. In assay [3] (IRC: rhHAPLN1 0.004 mg/kg B.W intraperitoneal), the “expression of αSMA in kidney compared to IRV (FIG. 14C)” value is listed as “as high as the IRV”.
